The source of these data is PMC11079029, “Intramolecular autoinhibition regulates the selectivity of PRPF40A tandem WW domains for proline-rich motifs” (Nature Communications, 2024).

Usually stoichiometry N stands for a count of units in the complex or per binding partner.

Experiment [1] deals with PRPF40A N-ext-WW12 mutant (residues 56-236, PPVP/PALPP motifs changed to alanines) (human) (UniProt O75400). Kind of experiment: ITC; PRPF40A construct (WW12, N-ext-WW12 or its mutant) in the cell, GB1-SF1 or GB1-SF3A1 construct in the syringe (as shown in Supplementary Figures 16 and 21); 25 °C, 20 mM sodium phosphate pH 6.5, 100 mM NaCl; one-site binding model; at least duplicates; affinities apparent. On the technique in general: In ITC the heat of successive injections is recorded.

Experiment [2] concerns the target PRPF40A N-ext-WW12 (N-terminally extended WW tandem, residues 56-236) (human) (UniProt O75400). The experiment is described as above.
The target in experiment [3] is GB1-SF1 16-mer peptide 575-590 (SF1 PRPF40A WW binding site, GB1-tagged). Kind of experiment: ITC; GB1-peptide or GB1-SF1 construct in the cell, PRPF40A WW12 in the syringe (as shown in Supplementary Figures 7 and 16A); 25 °C, 20 mM sodium phosphate pH 6.5, 100 mM NaCl; one-site binding model; at least duplicates; affinities apparent.
Experiment [4] addresses GB1-SF1 16-mer peptide 623-638. The description is as above.
Experiment [5] has as its target GB1-SF1 16-mer peptide 596-611. Described as above.
Experiment [6] concerns the target GB1-SF1 16-mer peptide 478-493. The experiment is described as above.
Experiment [7] deals with GB1-SF1 16-mer peptide 425-440. The experiment is described as above.
For experiment [8], the target named is GB1-SF1 16-mer peptide 470-485. The description is as above.
Experiment [9] has as its target GB1-SF1(596-611) 16-mer peptide. Kind of experiment: ITC; MicroCal PEAQ-ITC, 25 °C, 20 mM sodium phosphate pH 6.5, 100 mM NaCl; PRPF40A constructs and GB1-tagged SF1 16-mer peptides; who was in the syringe is not stated for these panels (Fig. 2B, Fig. 5C); one-site model.

In the case of “GB1-SF1 16-mer peptide 575-590 (SF1 PRPF40A WW binding site, GB1-tagged)”, in [1], the Kd was 2.21 µM and the stoichiometry N turned out to be 0.84 sites. Besides, in experiment [2], the Kd is 8.71 µM and the stoichiometry N was 0.88 sites.
Turning to “PRPF40A WW12 (tandem WW domains, residues 141-236) (from UniProt O75400 141-236) (domain or fragment)”, the Kd in experiment [3] came to 1.4 µM; in experiment [4], 23.3 µM; in [5], 65.9 µM; in experiment [6], 9.59 µM; in [7], 20.2 µM; in [8], 13.9 µM. The Kd in experiment [9] is 65.9 µM. Also, the stoichiometry N was found to be 1 sites in [3]; 0.95 sites in experiment [4]; 1.1 sites in [5]; 0.8 sites in experiment [6]; 0.87 sites in experiment [7]; 0.9 sites in experiment [8].
